Measured values as given in patent US20220125947A1 (published 2022).
Numbering of substitutions follows the chain as printed.

T1: T cell receptor (TCR) Vγ9 (TRGV9) (human, UniProt Q99603 21-122)
T1 chain (looked up): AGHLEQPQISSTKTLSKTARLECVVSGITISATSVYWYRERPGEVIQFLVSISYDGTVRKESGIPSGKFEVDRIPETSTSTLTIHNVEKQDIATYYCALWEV

T2: T cell receptor (TCR) Vγ9 (TRGV9) (human, UniProt Q99603 21-122)
T2 chain (looked up): T1 chain (looked up)

B1: VG9B198 (antibody, human IgG1, lambda, V domains shown)
VH: QVQLQESGPGLVKPSETLSLTCTVSGDSISSIYWSWIRQSAGKGLEWIGRIYTTDITNYNPSLKSRVTMSADTSKNQLSLKLTSVTAADTAVYYCAKNGYSYGGFNYWGQGTLVTVSS
VL: QSVLTQPPSVSGAPGQRVTISCTGSSSNIGAGYDVHWYQRLPGTAPKLLIYGDSYRPSGVPDRFSGSKSGTSASLAITGLQAEDEADYYCQSYDSSLSVVVFGGGTKLTVLG
B2: VG9B191 (antibody, human IgG1, lambda, V domains shown)
VH: EVQLVQSGGGLVKPGGSLRLSCAASGFTFSRYSMNWVRQAPGKGLEGVSSISSSSSYIYYADSVKGRFTISRDNAKNSLYLQMNSLRAEDTAVYYCARDGPTVNWDYYFDLWGRGTLVTVSS
VL: QSVLTQPPSVSAAPGQKVTISCSGSSSNIGNNYVSWYQQLPGTAPKLLIYDNNKRPSGIPDRFSGSKSGTSATLGITGLQTGDEADYYCGTWDSSLSTSVVFGGGTKLTVLG
B3: VG9B67 (antibody, human IgG1, kappa, V domains shown)
VH: EVQLVESGGGLVKPGGSLRLSCAASGFTFSSYTMNWVRQAPGKGLEWVSSISSSSSYIDYAESVKGRFTISRDNAKNSLYLQMNSLRAEDTAVYYCARDGDILATIRGSFDYWGQGTTVTVSS
VL: DIVMTQTPLSLPVTPGEPASISCRSSQSLLDSDAGNTYLDWYLQKPGQSPQLLIYTLSYRASGVPDRFSGSGSGTDFTLKISRVEAEDVAIYYCMQRIEFPITFGQGTKVEIKR
B4: VG9B127 (antibody, human IgG1, kappa, V domains shown)
VH: B3 VH with E1Q, A23T, S30G, S31A, Y60F, N84I, L103V, A104S, T117A, T118L
VL: B3 VL with D1E, T7S, A34D, A90G
B5: VG9B162 (antibody, human IgG1, lambda, V domains shown)
VH: QVQLVESGAEVTKPGASVKVSCKASGYTFTGDYMHWVRQAPGQGLEWMGWINPNSGYTNYAQKFQGRVTMTRDTSISTAYMELSRLRSDDTAVYYCAREGDAFDVWGQGTMVTVSS
VL: QLVLTQSSSASGSPGQSVTISCTGTSSDVGGYNYVSWYQQHPGKAPKLMIYEVSKRPSGVPDRFSGSKSGNTASLTVSGLQAEDEADYYCNSYAGSNNFEVFGGGTKLTVLG
B6: VG9B36 (antibody, human IgG1, kappa, V domains shown)
VH: QVQLVESGGGLVKPGGSLRLSCASSGFTFSSYGMYWVRQAPGKGLEWVSSISTGSSYIYYADSVKGRFTISRDNAKNSLYLQMNSLRAEDTAVYYCARDKGLAVTGYIMDVWGQGTTVTVSS
VL: EIVLTQSPSSLSASVGDRVTITCQASQDISNYLNWYQQKPGKAPKLLIYDASNLETGVPSRFSGSGSGTDFTFTISSLQPEDIAIYYCQQYDNLPMYTFGQGTKVEIKR
B7: VG9B402 (antibody, human IgG1, kappa)
heavy: not shown
light: DIQMTQSPSSVSASVGDRVTITCRASQGINSWLAWYQQKPGNAPKLLIYAASSLQSGVPSRFSGIGSGTDFIFTISSLQPEDFASYYCQQANSFPWTFGQGTKVDIKRTVAAPSVFIFPPSDEQLKSGTASVVCLLNNFYPREAKVQWKVDNALQSGNSQESVTEQDSKDSTYSLSSTLTLSKADYEKHKVYACEVTHQGLSSPVTKSFNRGEC
B8: VG9B44 (antibody, human IgG1, kappa, V domains shown)
VH: QVQLQQSGPGLVKPSQTLSLTCAISGDSVSSNSAAWNWIRQSPSRGLEWLGRTYYRSKWYNDYPISVKSRISINPDTSKNQFSLQLNSVTPEDTAVYYCARESGSYYTDGFDIWGQGTMVTVSS
VL: DIQMTQSPSFLSASVGDRVTITCRASQGISSYLAWYQQKPGKAPKLLIYAASTLQSGVPSRFSGSGSGTEFTLTISSLQPEDFATYYCQEFNSYPYTFGQGTKLEIKR
B9: VG9B384 (antibody, human IgG1, lambda, V domains shown)
VH: QVQLQESGPALVKPTQTLTLTCTFSGFSLSSSGMCVSWIRQPPGKALEWLTLIDWFDDKYYSTSLKTRLTISKDTSKNQVVLTMTNMDPVDTATYYCARIRGTGAYYYGLDVWGQGTMVTVSS
VL: SYELMQPPSVSVSPGQTASITCSGNELGDKYASWYQQQPGQSPVLVIYQDNKRPSGIPERFSGSNSGNTATLTISGTQAMDEADYYCQAWDSSKVVFGGGTKLTVLG
B10: VG9B413 (antibody, human IgG1, kappa)
heavy: not shown
light: EIVMTQSPGTLSLSPGDRATLSCRASQSVASSYLAWYQQKPGQSPRLLIYGASSRATGIPDRFSGSGSGTDFTLTISRLEPEDFAVYYCQQYGSSPPYTFGQGTKVEIKRTVAAPSVFIFPPSDEQLKSGTASVVCLLNNFYPREAKVQWKVDNALQSGNSQESVTEQDSKDSTYSLSSTLTLSKADYEKHKVYACEVTHQGLSSPVTKSFNRGEC
B11: VG9B403 (antibody, human IgG1, kappa)
heavy: not shown
light: B10 light with E1D
B12: VG9B33 (antibody, human IgG1, kappa, V domains shown)
VH: EVQLVESGGGLVKPGGSLRLSCAASGFTFSSYNMNWVRQAPGKGLEWVSSISTSSSYIYYADSVKGRFTISRDNAKNSLYLQMNGLRAEDTAVYYCARDTSVTKYPDTFDIWGQGTMVTVSS
VL: DIVMTQSPSSLSASVGDRVTITCRASQDINNYLAWFQQKPGKVPNLLIYGASTLQSGVPSRFTGSGSGTDFTLTISSLQPEDVATYYCQKYNSAPFTFGPGTKVDIKR
B13: VG9B137 (antibody, human IgG1, kappa, V domains shown)
VH: EVQLVESGGGLVKPGGSLRLSCAAFGITFSSYSMDWVRQAPGRGLEWVSSIGSSSSYIFYADSVKGRFTISRDNAKNSLYLQMNSLRAEDTAVYYCATSYSWNYGGAFDIWGQGTMVTVSS
VL: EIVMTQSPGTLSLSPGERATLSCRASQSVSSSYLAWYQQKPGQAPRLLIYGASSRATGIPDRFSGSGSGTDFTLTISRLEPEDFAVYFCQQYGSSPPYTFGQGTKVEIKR
Throughout, for CD25+ (Vg9+ cells), flow staining: test concentration or dose not given here.
Throughout, for CD71+ (Vg9+ cells), flow staining: test concentration or dose not given here.

Biological target: T1, T cell receptor (TCR) Vγ9 (TRGV9)
Assay: cell-based or functional assay
With B1 the “CD25+ (Vg9+ cells), flow staining” value was 23%, the “CD71+ (Vg9+ cells), flow staining” value was 91.2% and the “Granzyme B, Luminex (supernatant)” value was 1100. The “IFNγ, Luminex (supernatant)” value was 324, the “IL6, Luminex (supernatant)” value was 199 and the “TNFα, Luminex (supernatant)” value was 66. For the same binder, the “Vg9 T cell %, flow staining” value was 3.6%.

Biological target: T2, T cell receptor (TCR) Vγ9 (TRGV9)
Assay: cell-based or functional assay
In the case of B2, the “CD25+ (Vg9+ cells), flow staining” value is reported as 42.4%, the “CD71+ (Vg9+ cells), flow staining” value is reported as 93.6% and the “Granzyme B, Luminex (supernatant)” value is reported as 3370. The “IFNγ, Luminex (supernatant)” value was 1380, the “IL6, Luminex (supernatant)” value was 400 and the “TNFα, Luminex (supernatant)” value was 7320. For the same binder, the “Vg9 T cell %, flow staining” value was 5.2%. B3 was tested, and the “CD25+ (Vg9+ cells), flow staining” value was 28.5%, the “CD71+ (Vg9+ cells), flow staining” value was 87.4% and the “Granzyme B, Luminex (supernatant)” value was 2550. The “IFNγ, Luminex (supernatant)” value was 972, the “IL6, Luminex (supernatant)” value was 365 and the “TNFα, Luminex (supernatant)” value was 144. For the same binder, the “Vg9 T cell %, flow staining” value was 14%. B4 was tested, and the “CD25+ (Vg9+ cells), flow staining” value was 37.3%, the “CD71+ (Vg9+ cells), flow staining” value was 96.5% and the “Granzyme B, Luminex (supernatant)” value was 2450. For the same binder, the “IFNγ, Luminex (supernatant)” value was 1170, the “IL6, Luminex (supernatant)” value was 348 and the “TNFα, Luminex (supernatant)” value was 709. The “Vg9 T cell %, flow staining” value was 11.2%. With B5 the “CD25+ (Vg9+ cells), flow staining” value was 9.7%, the “CD71+ (Vg9+ cells), flow staining” value was 70.3% and the “Granzyme B, Luminex (supernatant)” value was 481. The “IFNγ, Luminex (supernatant)” value was 57, the “IL6, Luminex (supernatant)” value was 54 and the “TNFα, Luminex (supernatant)” value was 329. For the same binder, the “Vg9 T cell %, flow staining” value was 2.7%. In the case of B6, the “CD25+ (Vg9+ cells), flow staining” value is reported as 29.1%, the “CD71+ (Vg9+ cells), flow staining” value is reported as 89.4% and the “Granzyme B, Luminex (supernatant)” value is reported as 3890. For the same binder, the “IFNγ, Luminex (supernatant)” value was 2580, the “IL6, Luminex (supernatant)” value was 607 and the “TNFα, Luminex (supernatant)” value was 188. The “Vg9 T cell %, flow staining” value was 7.8%. B7 was tested, and the “CD25+ (Vg9+ cells), flow staining” value was 45.5%, the “CD71+ (Vg9+ cells), flow staining” value was 99.1% and the “Granzyme B, Luminex (supernatant)” value was 4500. For the same binder, the “IFNγ, Luminex (supernatant)” value was 2370, the “IL6, Luminex (supernatant)” value was 433 and the “TNFα, Luminex (supernatant)” value was 376. For the same binder, the “Vg9 T cell %, flow staining” value was 9.5%. With B8 the “CD25+ (Vg9+ cells), flow staining” value was 45.4%, the “CD71+ (Vg9+ cells), flow staining” value was 98.8% and the “Granzyme B, Luminex (supernatant)” value was 3030. For the same binder, the “IFNγ, Luminex (supernatant)” value was 1150, the “IL6, Luminex (supernatant)” value was 587 and the “TNFα, Luminex (supernatant)” value was 198. For the same binder, the “Vg9 T cell %, flow staining” value was 14.4%. For B9, the “CD25+ (Vg9+ cells), flow staining” value was 26.4%, the “CD71+ (Vg9+ cells), flow staining” value was 89.9% and the “Granzyme B, Luminex (supernatant)” value was 2300. For the same binder, the “IFNγ, Luminex (supernatant)” value was 1100, the “IL6, Luminex (supernatant)” value was 610 and the “TNFα, Luminex (supernatant)” value was 3740. The “Vg9 T cell %, flow staining” value was 3.4%. In the case of B10, the “CD25+ (Vg9+ cells), flow staining” value is reported as 44.9%, the “CD71+ (Vg9+ cells), flow staining” value is reported as 98.8% and the “Granzyme B, Luminex (supernatant)” value is reported as 5800. The “IFNγ, Luminex (supernatant)” value was 2830, the “IL6, Luminex (supernatant)” value was 1960 and the “TNFα, Luminex (supernatant)” value was 229. The “Vg9 T cell %, flow staining” value was 13.3%. B11 was tested, and the “CD25+ (Vg9+ cells), flow staining” value was 36.2%, the “CD71+ (Vg9+ cells), flow staining” value was 97.5% and the “Granzyme B, Luminex (supernatant)” value was 3020. The “IFNγ, Luminex (supernatant)” value was 1390, the “IL6, Luminex (supernatant)” value was 175 and the “TNFα, Luminex (supernatant)” value was 102. For the same binder, the “Vg9 T cell %, flow staining” value was 7.2%. B12 was tested, and the “CD25+ (Vg9+ cells), flow staining” value was 28%, the “CD71+ (Vg9+ cells), flow staining” value was 95.2% and the “Granzyme B, Luminex (supernatant)” value was 1990. For the same binder, the “IFNγ, Luminex (supernatant)” value was 749, the “IL6, Luminex (supernatant)” value was 240 and the “TNFα, Luminex (supernatant)” value was 85. The “Vg9 T cell %, flow staining” value was 14%. With B13 the “CD25+ (Vg9+ cells), flow staining” value was 8.7%, the “CD71+ (Vg9+ cells), flow staining” value was 77.3% and the “Granzyme B, Luminex (supernatant)” value was 36. For the same binder, the “IFNγ, Luminex (supernatant)” value was 44, the “IL6, Luminex (supernatant)” value was 8 and the “TNFα, Luminex (supernatant)” value was 30. For the same binder, the “Vg9 T cell %, flow staining” value was 3.6%.
